Earlier results on 1 substance are cited in article PMC2650229.

A word on the Kd: it is the free concentration of one partner at which half of the binding sites on the other are occupied at equilibrium, for simple one-to-one binding.

The series has as its target ERp57 b' domain (Homo sapiens) (UniProt P30101).
Sequence of UniProt P30101 (P30101 241-360): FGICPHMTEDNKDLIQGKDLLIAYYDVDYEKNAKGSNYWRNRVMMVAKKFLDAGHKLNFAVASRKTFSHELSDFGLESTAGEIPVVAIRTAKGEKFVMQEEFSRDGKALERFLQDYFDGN

With “calreticulin P-domain (from UniProt P27797)”, the dissociation constant Kd was 2600 nM.
